Broadly, the Km is the substrate concentration at which the rate is half of its maximum. The term kcat denotes the number of substrate molecules converted per active site and unit of time at saturation.

One series deals with T1, AfLuc.
T1 construct: codon-optimised synthetic gene in pET21b, E. coli BL21, Ni-NTA purified
The series can be described thus: luminescence steady-state kinetics, global numerical analysis. The note with it: 25 nM protein. The series is classed as biochemical, Amphiura filiformis.

Substrate in series [1]: Oc1ccc(Cc2nc3c(Cc4ccccc4)nc(-c4ccc(O)cc4)cn3c2O)cc1
Described as above. In kind it is biochemical, Renilla reniformis. To be noted: 25 nM protein.

For the molecule `Oc1ccc(Cc2nc3c(Cc4ccccc4)nc(-c4ccc(O)cc4)cn3c2O)cc1` [coelenterazine], the Km in the series with AfLuc was 1.21 ± 0.03 µM.

B1: RLuc (Renilla reniformis) (protein)
chain: MTSKVYDPEQRKRMITGPQWWARCKQMNVLDSFINYYDSEKHAENAVIFLHGNAASSYLWRHVVPHIEPVARCIIPDLIGMGKSGKSGNGSYRLLDHYKYLTAWFELLNLPKKIIFVGHDWGACLAFHYSYEHQDKIKAIVHAESVVDVIESWDEWPDIEEDIALIKSEEGEKMVLENNFFVETMLPSKIMRKLEPEEFAAYLEPFKEKGEVRRPTLSWPREIPLVKGGKPDVVQIVRNYNAYLRASDDLPKMFIESDPGFFSNAIVEGAKKFPNTEFVKVKGLHFSQEDAPDEMGKYIKSFVERVLKNEQ
notes: codon-optimised synthetic gene in pET21b, E. coli BL21, Ni-NTA purified
For the molecule B1, in series [1], the Michaelis constant (Km) is reported as 0.91 ± 0.05 µM and the kcat is 4.2 ± 0.2 s⁻¹.
